# In patent publication US20120172293A1 (Takeda / Millennium, published 2012):
# How the values were obtained:
# [1] = biological target: human Y2 receptor (human) (UniProt P49146); test: RBA: [125I]-PYY displacement, hY2R/CHO membranes
# [2] = biological target: human Y2 receptor (human) (UniProt P49146); test: cell-based or functional assay
IC50 Ratio (vs PYY(3-36)) [1],"GBA EC50 Ratio (vs PYY(3-36)), [35S]GTPγS [2]",Substance
1.8,1.3,"Ac-[D-Pro24, Pya(4)26, Cha27,36, Aib28,31, Lys30]-PYY(23-36) (peptide)"
4,3.4,"N-4-Pyridiniyl-[Pic(4)23, D-Pro24, Cha27,28,36, Aib31]-PYY(23-36) (peptide)"
1.7,1.2,"[βAla23, D-Pro24, Cha27,28,36, Aib31]-PYY(23-36) (peptide)"
7.3,5,"Ac-[Hyp23, D-Pro24, Cha27,28,36, Aib31]-PYY(23-36) (peptide)"
50,13,"Ac-[Ala26, Ile28,31, Arg(Me)35]-PYY(22-36) (peptide)"
0.9,0.9,"[(PEG2)23, D-Pro24, Cha27,28,36, Aib31]-PYY(23-36) (peptide)"
2,1.2,"[N(2-hydroxyethyl)Gly23, D-Pro24, Cha27,28,36, Aib31]-PYY(23-36) (peptide)"
2.5,1.6,"Ac-[Hse23, D-Pro24, Cha27,28,36, Aib31]-PYY(23-36) (peptide)"
5.4,2.5,"[Lys(Ac)23, D-Pro24, Cha27,28,36, Aib31]-PYY(23-36) (peptide)"
5.8,2.4,"[N(iBu)Gly23, D-Pro24, Cha27,28,36, Aib31]-PYY(23-36) (peptide)"
20,31,"Ac-[D-Iva23, D-Pro24, Cha27,28,36, Aib31]-PYY(23-36) (peptide)"
2.8,1.2,"Ac-[Aad23, D-Pro24, Cha27,28,36, Aib31]-PYY(23-36) (peptide)"
13,17,"Ac-[Iva23, D-Pro24, Cha27,28,36, Aib31]-PYY(23-36) (peptide)"
